Test results as given in patent US20050064507A1, “Determining kinase specificity” (priority 2003, published 2005).

Assays:
PKC-alpha = target: T1, PKC-alpha (Homo sapiens, UniProt P17252); assay: In vitro kinase assay: peptide phosphorylation by PKC-alpha; type: biochemical; conditions: for PKC alpha phosphorylation: normalized to best substrate
T1 construct: purchased Calbiochem
How it was run: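 Purified active human PKC-alpha, 5-20 ng per well, phosphorylated biotinylated peptides in duplicate wells with 100 μM ATP including 1 uCi/well of ^32P-gamma ATP. The buffer was 100 mM HEPES, 0.05% Triton-X100, 1 mM CaCl2, 20 mM MgCl2, 0.2 mg/ml phosphatidyl serine and PMA 100 ng/ml. Reactions ran at 30° C., usually for 10 minutes, keeping stoichiometry under 5%. They were stopped with ATP/EDTA, captured on streptavidin plates, washed, and counted by scintillation.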

PKC-theta = target: T2, PKC-theta (Homo sapiens, UniProt Q04759); assay: In vitro kinase assay: peptide phosphorylation by PKC-theta; type: biochemical; conditions: for PKC theta phosphorylation: normalized to best substrate
T2 construct: His-tag; made in house; host or cells: baculovirus-infected Sf9 cells
How it was run: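 Recombinant human PKC-theta, expressed in baculovirus-infected Sf9 cells and purified on a nickel chelating column, was incubated with biotinylated peptides, 100 μM ATP containing ^32P-gamma ATP, and PKC buffer with CaCl2, MgCl2, phosphatidyl serine and PMA at 30° C. Reactions were stopped with ATP/EDTA. Peptides were captured on streptavidin-coated plates, and phosphorylation was normalized to the best substrate.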

T2 sequence (Q04759 whole entry): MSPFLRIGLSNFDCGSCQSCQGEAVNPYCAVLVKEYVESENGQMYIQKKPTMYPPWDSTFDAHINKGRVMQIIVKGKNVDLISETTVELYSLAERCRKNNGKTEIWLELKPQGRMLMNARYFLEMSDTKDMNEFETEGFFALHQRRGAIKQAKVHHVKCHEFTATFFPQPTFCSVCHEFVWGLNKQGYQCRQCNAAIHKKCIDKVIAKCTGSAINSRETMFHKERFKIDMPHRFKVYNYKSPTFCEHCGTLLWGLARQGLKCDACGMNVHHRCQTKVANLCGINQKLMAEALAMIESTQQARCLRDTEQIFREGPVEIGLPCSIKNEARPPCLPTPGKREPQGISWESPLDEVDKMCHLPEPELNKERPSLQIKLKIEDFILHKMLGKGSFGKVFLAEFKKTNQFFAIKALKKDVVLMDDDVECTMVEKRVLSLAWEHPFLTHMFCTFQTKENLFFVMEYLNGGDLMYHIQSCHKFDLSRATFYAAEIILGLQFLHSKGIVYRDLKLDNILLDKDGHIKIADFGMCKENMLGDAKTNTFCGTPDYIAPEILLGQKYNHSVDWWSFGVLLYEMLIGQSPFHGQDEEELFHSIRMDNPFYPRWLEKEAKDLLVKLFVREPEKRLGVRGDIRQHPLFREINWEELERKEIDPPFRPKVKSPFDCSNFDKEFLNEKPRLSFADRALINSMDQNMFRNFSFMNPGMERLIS

| Substance | phosphorylation by PKC alpha (PKC-alpha; peptide concentration 1 uM) | phosphorylation by PKC alpha (PKC-alpha; peptide concentration 10 uM) | phosphorylation by PKC theta (PKC-theta; peptide concentration 1 uM) | phosphorylation by PKC theta (PKC-theta; peptide concentration 10 uM) | PKC alpha phosphorylation (PKC-alpha) | PKC theta phosphorylation (PKC-theta) |
| --- | --- | --- | --- | --- | --- | --- |
| 148 (RELEQLKAEYLERRASRRRA) [compound 148] | 19 | 22 | 34 | 34 |  |  |
| 97 (KKRSSKKEASMKKVVRP) [compound 97] |  |  |  |  | 37% | 31% |
| 151 (PQNSLKASNRKKKRTSFKRK) [compound 151] | 17 | 16 | 25 | 19 |  |  |
| 153 (TYLLPDKSRQGKRKTSIKRD) [compound 153] | 17 | 22 | 22 | 18 |  |  |
| 152 (DLIEGRKGAQIVKRASLKRG) [compound 152] | 13 | 12 | 31 | 30 |  |  |
| 87 (RQGKRKTSIKRDTVNPL) [compound 87] |  |  |  |  | 46% | 65% |
| 149 (RVVQSVKHTKRKSSTVMK) [compound 149] | 33 | 52 | 13 | 14 |  |  |
| 150 (VDPFYEMLAARKKRISVKKK) [compound 150] | 12 | 11 | 35 | 35 |  |  |
| 91 (VHYTSKDTLRKRHYWR) [compound 91] |  |  |  |  | 60% | 10% |
| 88 (KKPFKLSGLSFKRNRKE) [compound 88] |  |  |  |  | 48% | 38% |
| 81 (KRERKTSSKSSVRKRR) [compound 81] |  |  |  |  | 62% | 46% |
| 98 (AGPLRKSSLKKGGRL) [compound 98] |  |  |  |  | 25% | 22% |
